In the nanobody polyreactivity screen of Harvey et al. (2022):

Experiment: yeast display, Sf9 membrane polyspecificity reagent, FACS + sequencing; frameworks hold sequencing errors
Summary of the method: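 Using colony PCR, genes from sorted yeast display clones were amplified, then sequenced on MiSeq at 2 × 250 and filtered by CDR length. The clones had been stained with 10% biotinylated, detergent-solubilized Sf9 membrane reagent for 1 hour at 4 °C and sorted by FACS into low and high (top ~1%) gates on anti-HA and streptavidin fluorescence. Polyreactivity labels come from the gate of origin.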

Row | Sequence | polyreactivity (PSR sort gate)
1 | QVQLVESGGGLVQAGGSLRLSCAASGSIFSQNAMGWYRQAPGKERELVASITYSGGSTYYADSVKGRFTISRDNAKNTVYFQMNSLKPEDTEVYYCAADVRYSSRFYYWGQGTQVTVSS | high polyreactivity
2 | QVQLVESGGGLVQAGGSLRLSCAASGPIFKRNAMGWYRQAPGKERELVAAISGSGGRTYYADSVKGRFTISRDNAKNTVYLQMNSLKPEDTAVYYCNAGGSYYARGMDYWGQGTQVTVSS | high polyreactivity
3 | QVQLVESGGGLVQAGGSLRLSCAASGRTCSNYAMGWYRQAPGKERELVAAISYSVGSTYYADSVKGRFTIARDNAKNTVYLQMNSLKPEDTAVYYCNAKSRPHYAWYRYDYWGQGTQVTVSS | high polyreactivity
4 | QVQLVESGGGLDQAGGSLSLSCAASGIIFAGNAMGWYRQPPGKERELVAAISSNGGSTYYADSVKGRFTISRDNAKNTVYLQMNSLKPEDTAVYYCAADRVYWGRVQGYYWGQGTQVTVSS | low polyreactivity
5 | QVQLVESGGGLVQAGGSLRLSCAASGFTFWYYTMGWYRQAPGKERELVAAITRSGGRTYYADSVKGRFTISRDNAKNTVYLQMNSLKPEDTAVYDCAAVGNLYYTSHWQYDYWGQGTQVTVSS | high polyreactivity
6 | QVQFVESGGGLVQAGGSLRLSCAASGSIFYRYTMGSYRQAPGKERELVAAISSRGGSTYYADSVKGRFTISRDNAKNTVYLQMNSLKPEDTAVYYCAARYFRNPVFVIMDYWGQGTQVTVSS | high polyreactivity
7 | QVQLVESGGGLVQAGGSLRLSWAASGNTFNNNPMGWYRQAPGKERELVAAISGSGGSTYYADSVKGRFTISRDNAKNTVYLQLNSLKPEDTAGYYCAVRLVHGGKRYVYWGQGTQVTVSS | high polyreactivity
8 | QVQLVESGGGLVQAGGSLRLSCAASGFTIRSYVMGWYRQAPGKERELVAAIRRSGGSTYYADSVKGRFTNSRDNAKNTVYLQMNSLKPEDTAVYYCNAPHHRYDWGQGTQVTVSS | high polyreactivity
9 | QVQLVESGGGLVQAGGSLRLSCASSGSTFYGNAMGWYRQAPGKERELVATISSGGSTDYADSVKGRFTISRDNAKNTVYLQMNSLKPEDTAVYYCATDNYLGYYYKDGVLDDYWGQGTQVTVSS | low polyreactivity
10 | QVQHVESGGGLVQAGGSLRLSCAASGFTFLNYSMGWYRQAPGKERELVAAISFSTGRTYYADSVKGRFTISRDNAKNTVYLQMNSLKPEDTAVYYCNAERGFSDYWGQGTQVTVSS | high polyreactivity
11 | QVQLVESGGGLVQAGGSLRLSCAASGRIFKYYAMGWYRQSPGKERELVAAITSSGGSTYYADSVKGRFTISRDNAKNTVYLQMNRLKPEDTAVYYCAARGPKQLYPGYIYGYWGQGTQVTVSS | low polyreactivity
12 | QVHLVESGGGLVQAGGSLRLSCAASGFLFDVYAMGWYRQAPGKERELVAAISRSGGSTYYADSVKGRFTISRDNAKNTVYLQMNSLKPEDTAVYYCATDLLNNVDYDYWGQGTQVTVSS | low polyreactivity
13 | QVQLVESGGGLVQAGGSLRLSCAASGLIFPRYGMGGYRPAPGKERELVAAITRGGSTYYADSVKGRFTISRDNAKNTVYLQMNSLKPEDTAVYYCIAELPVHWSWYDYWGHGTQVTVSS | low polyreactivity
14 | QVQLVESGGGLVQAGGSLRLSCAASGSIFVYYAMGWYRQAPGKERELVARITRGGRTYYADSVKGRFTISRDNAKNTVYLQMNSLKPEDTAVYYCAADYRVQLRKEYDYWGQGTQVTVSS | high polyreactivity
15 | QVQLVESGGGLVQAGGSLRLSCAASGRTFATYVMGWYRQAPGKERELVAAISLSGGSTYYADSVKGRFTISRDNAKNTVFLQMNSVKPEDTAVYYCAISWVTSSDYWGQGTQVTVSS | low polyreactivity
16 | QVQLVESGGGLVQAGVSLRLSCAASGRIFPYNAMGWDRQAPGKERELVAAIDWSGGRTYYADSVKGRFTISRDNAKNTDYLQMNSLKPEDTALYYCAAAYGGRLRYTAGYYWGQGTQVTVSS | high polyreactivity
17 | QVQLVESGGGLVQAGGSLRLSCAASGRTFYSYVMGWYRQAPGKERELVAAISSTGGTYADSVKGRFTISRDNAKNTVYLQMNSLKPEDTAVYYCAARVHFPYPDYAWITVLYDYWGQGTQVTVSS | low polyreactivity
18 | QVQLVESGGGLVQAGGSLRLSCAASGSTFVIYGMGWYRQAPGTERELVADITWIGGSTYYADSVKGRFTISRDNAKNTVYLQMNSLKPEDTAVYYCNADVRYGRDHWGQGTQVTVSS | low polyreactivity
19 | QVQLVESGGGLVQAGGSLRLSCAASGSTLNRNVMGSYRQAPGKERELVAVITYGVGSTYYADSVKGRFTISRDNAKNTVYLQLNSLKPEDTAVYYCNKDPLVFDYWGQGTQVTVSS | low polyreactivity
20 | QVQLVESGGGLVQAGGSLRLSCAASGYTFGKNAMGWYRQAPGKERELVAAISRSGGSTFYADSVKGRFTISRDNAKHTVYLQMNSLKPEDTAVYYCAARSYVRFDYWGQGTQVTVSS | high polyreactivity
21 | QVQLVESGGGLVQAGGSLRLSCAASGSTFWYYAMGWYRQAPGKEREFVAAITTSAGRTYYADSVKGRFTISRDNAKNTVYLQMNSLKPEDTAVYYCAAEPRQYWEYNYWGQGTQVTVSS | high polyreactivity
22 | QVQLVESGGGLVQAGGSLRLSCAASGNIFRSYAMGWYRQAPGKERELVAAISSSDDSTYYADSVKGRFTISRDNAKNTVYLQMNSLKPEDTAVYYCAADGWSWYKGYVGDDMDYWGQGTQVTVSS | low polyreactivity

Row | Sequence | polyreactivity (PSR sort gate)
23 | QVQLVETGGGLVQAGGSLRLSCAASGRTFGPYVMGWYRQAPGKERELVAGITSGGSTNYADSVKGRFTISRDNAKNTVYLQMNSLKPEDTAVYYCNADYVIYFGLYEYWGQGTQVTVSS | low polyreactivity
24 | QVQLVESGGGLDQAGGSLRLSCAASGFIFAYYAMGWYRQAPGKERELVAAISSGGRTYYADSVKGRFTISRDNAKNTVYLQLNSLKPEDTAVYYCNKRFYPEHYYWGQGTQVTVSS | high polyreactivity
25 | QVQLVESGGGLVQAGGSLRLSCAASGRTFATYAMGWYRQAPGKEREFVAVIDGSGGSTYYADSVKGRFTISRDNAKNTVYLQMNSLKPEDTAVYYCAATSRRKVPNIRKSYGYWGQGTQVTVSS | high polyreactivity
26 | QVQLVESGGGLVQAGGSLRLICAASGIIFWAYDMGWYRQAPGKERELVAAITWGGGSTYYADSVKGRFTISRDNAKNTVYLQMNSLKPEDTAVYYCAADRYVFQGYGPEVDYWGQGTQVTVSS | low polyreactivity
27 | QDQLVESGGGLVQAVGSLRLSCAASGSTFWSYAMGWYRQAPGKERELVAAITDSGGSTYYADSVKGRFTISRDNAKNTVYLQMNSLKPEDTAVYYCAVDSRYTPPLRPLGPFDYWGQGTQVTVSS | low polyreactivity
28 | QVQLQESGGGLVQAGGSLRLSCAASGYISTFSSEMGWYRQAPGKERELVASIAPGCTTSYADSVKGRFTISRDNAKNTVYLQMNSLKPEDTAVYYCAVDYTVPASFGYWGQGTQVTVSS | high polyreactivity
29 | QVQLVESGGGLVQAGGSLRLSCAASGRTFKLNAMGWYRKAPGKERELVAGITRTGDSTYYADSVKGRFTISRDNAKNTVYLQMNSLKPEDTAVYYCAAAEWYSMDYWGQGTQVTVSS | low polyreactivity
30 | QVQLVESGGGLVQAGGSLRLSCAASGSTFSNYAMGWYRQAPGKERELVAGIDWSGGSTYYADSVKGRFTISRDNAKNTVYLQMNSLKPEDTAVYYCAKRVWYHGRKLRGYYWGQGTQVTVSS | low polyreactivity
31 | QVQLVESGGGLVQAGGSLRLSCAASGGTFGYNAMGWYRQAPGKERELVAAITGGGRTYYADSVKGRFTISRDNAKNTVYLQMNSLKPEDTAVYYCNADYAYYSYDYWGQGTQVTVSS | low polyreactivity
32 | QVQLVESGGGLVHAGGSLRLSCAASGSTFYQNGMGWYRQAHGQERELVAALTGDGGSTYYADSVKGRFTISRDNAKNTVSLHMNSLKPEDTAVYYCAADWTVITDSQFNSGYDYWGQGTQVTVSS | low polyreactivity
33 | QVQLVESGGGLVKAGGSLRLSCAASGRTFWIYAMGWYRPAPGKERELRAAISQSSSNTYYADSVKGRVTLSRDNAKNTVYLQMNSLKPEDTAVYYCNAVVLRYQGSWLEYWGQGTQVTVSS | low polyreactivity
34 | QVQLVESGGGLVQAGGSLRLSCAASGRIFTYYAMGWYRQAPGKERELVAAISSGGSTYYADSGKGRFTISRDNAKNTVSLQMNSLKPEDTAVYYCAADTIYYFPYDYWGQGTQVTVSS | high polyreactivity
35 | QVQLVESGGGLVQAVGSLRLSCAASGYTFVIYAMGWYRQAPGKERELVAAITTIGGRTYYADSVKGRFTISRDNAKNTVYLQMISLKPEDTAVYYCAADIRSNRLYDGGYWGLGTQVTVSS | low polyreactivity
36 | QVQLVESGGGLVQAGGSLRLSCAASGFIFKRYTMGWYRQAPGKERELVAAISKSGSSTYYADSVKGRFTISRDNAKNTVYLQMHSLKPEDTAVYYCAAGWGWSSFGYGYWGQGTQVTVSS | high polyreactivity
37 | QVQLVESGGGLVQAGGSLRLTCAASGIIFDKNAMGWYRQAPGKERELVAVITRGGSTYYADSVKGRFTISRDNAKNTVYLQMNSLKPEDTAVYYCAARYTPGFGYWGQGTQVTVSS | high polyreactivity
38 | QVQLVESGGGLVQAGGSLRLTCAASGFIYPYYAMGWYRQATGKERELVATNTRSGGSTYYADSVKGRFTISLDNAKNNVYLQMNSVKQEDSAVYSCAADIYWYRGYGFWGQGTQVTVSS | high polyreactivity
39 | QVQLVESGGGLDQAGGSLRLSCAASGSTFRSNAMGWYRQAPGKERELVAGITSGTSTNYADSVKGRFTISRDNAKNTVYLQMNSLKPEDTAVYYCNTDRIWYGPEYDYWGQGTQVTVSS | low polyreactivity
40 | QVQLVESGGGLVQAGGSLRLSCAASGSTVDANAMGWYRPAPGKERELVATISDGGSTNYADSVKGRFTISRDNAKKTVYVQKNSLKPEDTAVYYCAAVKLFLGLGYDYWGQGTQVTVSS | low polyreactivity
41 | QVHLVESGGALVQAGGSLRLSCAASGFTFHTYASRLYRQAPGKEREFVAAISYSGGNTYYADSVKGHFTISRDNAKKTVYLHMNSLKPEDTAVYYCAAQYYYRYYWGPGTQVTVSS | high polyreactivity
42 | QVQLVESGGGLVQAGGSLLLSCAASGSIFRYYAMGWSRQAPGKERELVAAISSNGASTYYADSVKGRFTISRDNAKNTVYLQKNSLKPEVSGVYYCAARFRRAPGYYWGQGTQVTVSS | high polyreactivity
43 | QVQLVESGGGLGQAGGSLRLSCAASGYTFARNAMGWYRQAPGKEREMVAAINWSGTNTYYADSVKGRFTISRDNAKNTVYLQMNSLKPEDTAVYYCAKDLYFSGYEFDYWGQGTQVTVSS | low polyreactivity
